Experimental data published in patent US20250019448A1 (BIOCOMPLETE, published 2025).
Substitutions are numbered along the chain they refer to.

B1: #42 antibody (IgG form) (antibody, V domains shown)
VH: QVRLVQSGAEVKKPGASVKVSCRASGYTFASYDIHWVRQAPGQGPEWMGMINPAGGSTLYAEGFEGRLTMTRDRSMSTAYMELSSLRSEDTAVYYCARTPSQTYELDYWGQGTLVTVSS
VL: ETTLTQSPSSLSASVGDRVTITCRASQGIRNDLAWYQQKPGKAPKLLIYAASTLESGVPPRFSGSGSETDFTLTLIRLQPDDFATYYCLQSFSTPYTFGQGTQLTVL
B2: #47 antibody (IgG form) (antibody, V domains shown)
VH: QVQLVQSGGGVVQPGSSLRLSCEASGFAIGDNALNWVRQAPGKGLEWVGYIRSNSYGGTAEYAASVKGRFTISKDESKNIAYLEMNSLRAEDTAVYYCARRAHYYDGSTYNPSWYFDLWGRGTLVTVSS
VL: EIVLTQSPSFLSASVGDRVTITCRASQDISRRLAWYQQKPGKAPKLLIYGASNLASGVPSRFTGSGSGTEFTLTISSLQPDDFATYYCQQGYSSPRTFGQGTKVDIK
B3: #40 antibody (IgG form) (antibody, V domains shown)
VH: B2 VH with K74R, D106G, L124P
VL: B2 VL with Q38R, P80S

Target: T1, SMO (smoothened) protein (Homo sapiens (Human), UniProt Q99835 28-787)
T1 construct: Endogenous SMO on HCT116 and SKOV3 cancer cells; also called SMO in HCT116 cells; SMO receptor
Test: flow cytometry on HCT116 cells, 10 µg antibody, Alexa 594 secondary antibody
Procedure: The binding affinity of the SMO-binding antibodies in HCT116 colon cancer cells was analyzed by flow cytometry. After blocking the HCT116 cells with BSA for 30 minutes, 10 μg of the SMO-binding antibody was bound and incubated for 1 hour at room temperature. One hour later, the cells were washed with PBS, reacted with 2 μL of Alexa 594 secondary antibody, and then incubated for 1 hour at room temperature. One hour later, the cells were washed with PBS to remove non-specific binding, and the binding ability of the SMO-binding antibodies was analyzed by flow cytometry.

Does B1 bind?
Result: binds

Does B2 bind?
Result: binds

Does B3 bind?
Result: binds
